In the RNAGym collection of RNA variant scans (doi:10.1073/pnas.2313332121):

B1: TPR t1 (parent)
chain: GACCAAUCUGCCCUCAGAGCUCGAGAACAUCUUCGGAUGCAGAGGAGGCAGGCUUCGGUGGCGCGAUAGCGCCAACGUCCUCAACCUCCAAUGCAUCCCACCACAUGAUGAUGCCUGAAGAGCCUUGGUUUUUUG

Variants of: B1
Assay: polymerase ribozyme fitness, log enrichment relative to wild type (log ratio); higher = more active; in vitro selection for triplet polymerase activity
How it was run: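 Fitness is a logarithmic measure of how a genotype enriched relative to the wild type, with replicate averages weighted by inverse variance. The logarithm uses base 2, and enrichment came from Illumina sequencing of input and output libraries. Those libraries were PCR-built, transcribed mutants of each subunit of a heterodimeric triplet polymerase ribozyme, passed through one triplicate in vitro selection round that included frozen incubation at −7 °C, gel excision of extended constructs and streptavidin-bead capture. Genotypes were kept only if they had ≥10 input reads and ≥1 read per output.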

Variant | polymerase ribozyme fitness (log ratio)
G17C G25U C34U G69U U112G | -7.59
A18C G63A U92G U112C G117A | -4.55
G19A A43U | -2.7
G17U U55A | -2.43
A16U G42C A43G G45U C73A U129A | -3.44
A16U U21C G60A G71U U112G G113A | -5.57
G17A C124U | -1.79
G17A C124G | 0.0623
A18G G120U | -2.46
A18G G120C | -0.633
A18G A43U G71U U87C | -4.47
G17U A95G U131A | -2.77
A18U G57U C88U C101G | -6.08
G17U U78A C79G C115U | -6.15
A18G C88U G113U | -2.52
G17U A27U G42A A43U C85U C124A U133A | -5.61
A16U G58A C72U | -1.69
A18C C40U A41G C56G | -3.24
G17A C62G | -5.69
G17A U78C U129C | -3.37
G17C G48A C80U A83C A95G C123G | -6.14
G19C C88U | -2.6
G17U C20A C49U | -5.73
A18C A43G G47C U54C C114U U126A | -5.87

Variant | polymerase ribozyme fitness (log ratio)
G17U C49G C64U U131C | -2.89
A16U C114A | -4.01
G17C A90C A121C | -1.46
G17A G42U U106A | -5.21
A18C G42U G69C | -3.2
A18G C20A C64A A111G U112A | -6.09
G19C A41U G71A C88G C89U C104A C124U | -5.88
G17U A84U U96G G128U U130C | -3.54
G19A C70U C76G U81C | -4.57
G17U C89G C104U | -2.94
A16U C49A G63C | -1.43
A18C C56G U59A A100U A111G G127C | -3.88
A18U G44C G69U | -0.776
A16U G61A U81A C88G | -3.75
A18G C80U | -3.36
A16U G60C G117C U125A | -4.08
G17U G52C A74U G77U C123U | -2.34
G17U G45U G61U U81A | -3.74
A18U C73U C101U G120A | -2.78
A18G G60A C88U A90C | -4.63
A18G G19A C88U A90G | -1.41
G19A C20A C62U | -4.22
A18G C49G U87A C89A U116C A118G | -4.85
G17U U78A | -2.93

Variant | polymerase ribozyme fitness (log ratio)
A16U C72G | -1.5
A18G G58A C79G A118G | -7.2
G19A G48A A91G | -3.87
A18G C124U | -0.797
A18C U109A | -5.77
G19A C104U | -2.85
A16U G77A G117U | -3.13
A18U C76A C94U U112C | -1.22
A18G C72G A84G U92A C115A | -5.47
G19C G42C C97U C115A A119G U129A | -5.99
G19U C49U C53U G60U C123U | -5.84
A18C U32C A37U A50U G60A G113A | -5.4
G19U A29G | -4.96
G17A A43G G127A | -4.18
A18G G36C G45U U112A | -2.4
G17A U55A G63U A84G | -7.59
A18C G45A C53U | -4.6
A18C G58U G69C C89U U106A G110U | -4.7
G17A G47U | -4.84
A18U C94G A121C U126G | -5.02
A16U U116G | 0.557
G17A G36U | -3.69
A16U C62U C94U | -1.79
G19A C114A A121U | -1.17

Variant | polymerase ribozyme fitness (log ratio)
G17U G42U G128A | -5.51
G17C A29U U125G | -5.1
G19A U106A | -2.97
A16U G23A G36U A46C G47C C73A C114U U129G U132A | -7.62
A18U G58A U112A G122U | -2.54
A18U U81A | -3.77
G19C G61A U81G A84G A91G A111G | -4.6
G17U G135U | -3.6
G17A G77U U78A A118U | -4.97
A18U A46U | -3.64
A18C C104U C123G | 0.269
G17U A24G U32C G61C G117C | -6.76
G17C U21A G39A U112C C115A | -1.1
G17A G110A | -4.08
G17A A37U U54C C70U | -4.08
A16U G117C G120A | -4.52
G17C A75G C101U | -5.29
G17A G69U U81A U116A | -2.91
A16U C89A | -2.6
A16U U32C U38G G71A C114G A121U U133A | -6.3
A16U C79U C86A G120U G128A | -4.89
G17A C115U U125A | 0.421
A18C A27G A43U G44U G61A | -4.83
G19C C53G C62U C86U | -2.88

Variant | polymerase ribozyme fitness (log ratio)
A18C U92G A121G | -0.659
G17U A43G G57U | -4.19
A16U G63U | -4.13
G19U A121U | 0.0875
G17A G61A C73U A75C | -3.99
G17A A41U A84C | -4.63
G19A C40U C53A G58C G93U | -4.4
G17U A46C C62U U112A C115A U132G U134A | 0.56
A16U G47U G52U G65U C115U G117C | -6.26
A18G U78A C86A C97A C102U U109A G113C | -6.86
A18G C70U C82A | -6.34
G17A G36U G120C C123U C124G | -1.43
A18U C85U C94G | -5.59
G19C C20A C56U G71A A95U C102U U116C C123U U126G | -5.6
G17A U38G C115A U116A U131C | -2.73
G19C G45A C53U | -3.65
A18C G42A G44U C53G G93A | -4.64
A18U G25A C34G C53U G61A A100U | -8.02
G17U A68G C73G U112C | -5.21
A18C A29G G61A | -2.27
A18G A43U C101G G120A | -4.32
G17C C98U C102A A111G A121G G122A | -6.68
A16U G17C C123U U126C | -2.6
G19A A29G | -3.47

Variant | polymerase ribozyme fitness (log ratio)
A18C A41G C101G | -5.9
G17C A29G C72A | -5.8
G19U A41U G63C A111G | -4.2
G17U A27U C40A C64A C85A G117C G127A U129A | -6.49
A18U C88U | -2.25
G17A G69C U112A | -4.29
G17A C49G A83U U87C G117A | -3.65
A18U G42U A74G | -1.91
A18G G69A C88G G113C | -5.21
A18C G47U A111U U129G | -7.66
A16U G39U | -3.47
A18U G60A C72U G122A U130G | -3.74
G19A G44U C124A | -1.74
A18C A91U | -1.86
A18U C72U C97U | -3.15
A16U C82U | -2.17
G17U U21A C62G A75C C124U | -4.5
A18U C104A | -4.32
G17A G48A C102A A119U C123A | -6.09
G19A G45A C62U G71A | -3.18
G17U C88U | -2.42
A18G A66U G113A U126C U133A | -4.19
A16U C72G G122A | -2.16
A18G G42A C72G G113A U132A | -2.54

Variant | polymerase ribozyme fitness (log ratio)
G17U A121G | 0.688
G17C U54G C94A U112G | -6.12
A18U A43C C49U | -3.92
A18U A29U U54G C89G C114G | -3.41
A16U G69A C82G C97A C114U U133G | -5.51
G19C G58C A75U C82G | -3.28
A18U A41G U106A C124G | -1.51
A18C G45A C49G G61A U133A | -4.6
A16U G93A | -2.35
G17U G52U C62A C70U | -4.32
A18U A41U C114U C115G U116G A121G G122U | -3.05
G17A C88U U133A | -3.95
A18C U32C G120C | -0.763
A18C A118U | -0.81
G17U C115G | -0.423
A18G C22A G42C U54G G63C U112G | -5.39
A18U G117U | -4.36
A18C G113U | -4.82
G17A U109A G117A C124A | -5.22
G17A G23U G61U C76U C114A | -5.73
A18U G61A C70U C115A | -5.05
A18C C20U | -1.33
A18U C22G G58U U59G U87G | -4.24
